Read-outs that look alike come from different tables or passages of the source.
Assays:
[1] = Thermally driven MC to SP transition, decrease of MC absorption in the dark; type: physicochemical
Method: FIG. 7. (A), Time dependent absorption spectra of the lowest energy transition of the MC state of compound 12 dissolved in ethanol at a concentration of 20 μM at 20° in the dark—the spectra, from top to bottom, were recorded at the following times: a) 0; b), 60 s, c), 120 s; d), 180 s; e), 240 s; f), 360 s; g), 420 s; h), 480 s. The lowermost curve is the absorption spectrum of the non-irradiated SP state. (B), The rate for the thermally driven MC to SP transition was determined by analyzing the log of the maximum absorption value for each spectrum shown in FIG. 7A as a function of time. The reaction rate of […] was calculated using a least squares fitting procedure. (C), Absorption spectra of the MC-G-actin conjugate (compound 9) as a function of time in the dark. Spectra are as follows: a), before irradiation; b), after 30 second irradiation with 365 nm light; c), after 5 minutes in the dark at 20°; d), after 22 minutes in the dark at 20°; e) after irradiation with 546 nm light for 30 seconds
Thermally-driven transitions between MC and SP. The rate for the thermal equilibration of MC to SP in ethanol was measured using the decrease in the maximum MC absorption value as a function of time in the dark (FIGS. 7A,B). […] This rate, however, is too fast for many of the envisioned applications of optical switches in biology. […]

[2] = Absorption maximum of the MC state; type: physicochemical
Description: The family of Ca^2+-optical switch described in this invention has built-in design features that can be used to tune the maximum of the action spectrum for the MC-SP transition. The nitro group generates a weakly fluorescent MC state, which can be used to quantify the kinetics of Ca^2+-perturbations and to image the distribution of the MC state within living cells.
The absorption properties of the MC state of the Ca^2+ switch can be tuned using different 1-nitroso-2-naphthol. […] We will investigate the photophysics of optimized Ca^2+ switches based on spironaphthoxazine. We anticipate, based on our observations of the thermally-induced MC to SP transition that the rate of photochemistry for the spironaphthoxazine will be faster that the 11 μs reported for the spirobenzopyran group (Gorner, 2001).

[3] = molecular target: barbed-end of the actin filament; conditions: Ca^2+-dependent; Southwick & DiNubile, 1986; read-out: kd for binding to the barbed-end of the actin filament; cited from earlier work
G-actin [4] = molecular target: T1, G-actin (Oryctolagus cuniculus, UniProt P68135); experiment: Prodan-actin polymerization kinetics; type: biochemical, Rabbit; parameters: Rabbit muscle G-actin is purified according to Marriott (1994); from tissue; host or cells: rabbit muscle
Method: (§1) FIG. 20: Caging of CapG (A): Absorption spectra of […] samples of CapG (2), caged CapG (curve 1).
(§2) Preparation and characterization of caged CapG: Caged CapG was prepared using a modification of our published method for caging actin and profilin (Marriott, 1994; Marriott et al, 2003). In brief a purified solution of CapG (1 mg/ml) was dialyzed against 20 mM borate buffer, pH 8.5 overnight. The protein was centrifuged and the OD280 nm measured to determine the protein concentration (FIG. 8A). A 0.1 M acetone solution of NVOC-Cl was freshly prepared and added to the CapG with vigorous vortexing to a final concentration of 1 mM. This was usually realized by 2-3 additions over a 5-minute period. After 30 minutes at room temperature in the dark, the protein was centrifuged and dialyzed against 2×500 ml of G-buffer overnight. The absorption spectrum of the protein was recorded using the dialysis buffer as a reference and the amount of NVOC was determined by measuring the A350nm (E350nm=5,000 M^−1cm^−1). The concentration of protein was determined using the Bio-Rad Bradford assay. The introduction of 3-4 NVOC groups was sufficient to inhibit the formation of G-actin-CapG using two independent assays based on sensitivity of Prodan-actin to CapG binding. In FIG. 20B, CapG binding to Prodan-G-actin is seen to shift the emission spectrum, from 496 nm to 465 nm, and is accompanied by a 1.5 fold (FIG. 20B, curve 1)—this signal can be used to analyze the effects of CapG on actin polymerization kinetics as shown in FIG. 20C.

G-actin [5] = molecular target: T1, G-actin; experiment: CapG binding to Prodan-G-actin (fluorescence); parameters: Rabbit muscle G-actin is purified according to Marriott (1994); from tissue; host or cells: rabbit muscle; species or system Rabbit
Method: as §1
as §2, with “In FIG. 20B, CapG binding to Prodan-G-actin is seen to shift the emission spectrum, from 496 nm to 465 nm, and is accompanied by a 1.5 fold (FIG. 20B, curve 1)—this signal can be used to analyze the effects of CapG on actin polymerization kinetics as shown in FIG. 20C.” left out

CN1c2cc(CBr)ccc2C(C)(C)C12C=Nc1c(ccc3ccccc13)O2 (centres unmarked) [Compound 17, 6′-(Bromomethyl)spironaphthoxazin]
thermal reversion to the SP state [1]: within seconds | MC state absorption maximum [2]: about 620 nm

B1: CapG: 40 kD, Ca^2+ regulated actin filament barbed-end capping protein, His-tagged, cloned from mouse cDNA library (protein, UniProt P24452 1-352, looked up)
Macrophage-capping protein: MYTPIPQSGSPFPASVQDPGLHIWRVEKLKPVPIARESHGIFFSGDSYLVLHNGPEEASHLHLWIGQQSSRDEQGACAVLAVHLNTLLGERPVQHREVQGNESDLFMSYFPRGLKYYREGGVESAFHKTTSGARGAAIRKLYQVKGKKNIRATERPLSWDSFNTGDCFILDLGQNIFAWCGGKSNILERNKARDLALAIRDSERQGKAQVEIITDGEEPAEMIQVLGPKPALKEGNPEEDITADQTRPNAQAAALYKVSDATGQMNLTKVADSSPFASELLIPDDCFVLDNGLCAQIYIWKGRKANEKERQAALQVADGFISRMRYSPNTQVEILPQGRESPIFKQFFKNWK
modifications: His tag
notes: 40 kD, Ca^2+ regulated actin filament barbed-end capping protein, His-tagged, cloned from mouse cDNA library
Kd [3]: 1000 nM | effect on actin polymerization (G-actin [4]): inhibits the polymerization of G-actin | Kd (G-actin [5]; data not shown, read-out: kd of complex with G-actin): 100 nM

B2: caged CapG: CapG labeled with 3-4 NVOC groups using NVOC-Cl (protein, UniProt P24452 1-352, looked up)
Macrophage-capping protein: MYTPIPQSGSPFPASVQDPGLHIWRVEKLKPVPIARESHGIFFSGDSYLVLHNGPEEASHLHLWIGQQSSRDEQGACAVLAVHLNTLLGERPVQHREVQGNESDLFMSYFPRGLKYYREGGVESAFHKTTSGARGAAIRKLYQVKGKKNIRATERPLSWDSFNTGDCFILDLGQNIFAWCGGKSNILERNKARDLALAIRDSERQGKAQVEIITDGEEPAEMIQVLGPKPALKEGNPEEDITADQTRPNAQAAALYKVSDATGQMNLTKVADSSPFASELLIPDDCFVLDNGLCAQIYIWKGRKANEKERQAALQVADGFISRMRYSPNTQVEILPQGRESPIFKQFFKNWK
modifications: caged with 3-4 NVOC groups
notes: CapG labeled with 3-4 NVOC groups using NVOC-Cl
effect on actin polymerization (G-actin [4]): limited effect on the rate of actin polymerization | effect on actin polymerization (G-actin [4]; listed as Caged CapG): almost normal polymerization kinetics | binding to G-actin (G-actin [5]; Prodan-G-actin): binds poorly to G-actin
